This note sets out measurements from patent US20240228986A1, “ENGINEERED CELLS, ENZYMES, AND METHODS FOR PRODUCING CANNABINOIDS” (priority 2021, published 2024).

Type in all cases: cell-based, Yarrowia
Experiment [1] relates to olivetolic acid. As to the kind of experiment: Linkers for GPS1.1-MPT4 fusions, in vivo assay (Example 6). As to conditions: 1 mM olivetolic acid, 72 h quench. As to the method:
As described in detail below, plasmids pCL-SE-0380 (MPT4), pCL-SE-0406, pCL-SE-0435, and pCL-SE-0437 were transformed into strain sCL-SE-0128. Four separate colonies per transformation were precultured for 24 h in YNB containing glycerol (2%), casamino acids (0.5%), and MES (100 mM pH 6.5). Pre-culture was used to inoculate assay medium comprised of YNB containing glycerol (2%), casamino acids (0.5%), MES (100 mM pH 6.5), and olivetolic acid (1 mM). Cultures were quenched after 72 h total growth by mixing with equal volume of EtOH. Enzymes produced CBGA and FCBGA. Averages and standard deviations were calculated from replicates.
However, sCL-SE-0128 expresses HMGR and GPS1.1 to increase intracellular GPP levels for prenylation of OA to CBGA. The plasmids that were transformed contain either a gene expressing a prenyl-transferase (pCL-SE-0380 (MPT4)) or a gene expressing a fusion between GPS1.1 and a prenyl-transferase with different linker sequences.
(§1) Overnight YPD (10 g/L yeast extract, 20 g/L peptone, 2% dextrose) cultures were inoculated from glycerol stocks of the appropriate strain and grown at 30° C. with 250 rpm shaking. Once cultures had reached an OD600 of 4-6, cultures were centrifuged at 500×g for 5 min, supernatants were discarded, and cell pellets were resuspended in equal volume of water. Resuspended cells were centrifuged at 500×g for 5 min, supernatants were discarded, and cells were resuspended in a volume (75 μL×OD×Vculture) of transformation cocktail (45% PEG-400, 0.1 M LiAc, 0.1 M DTT, and 25 ug/100 μL SS Salmon Sperm DNA). For each transformation, >1 μg of plasmid DNA was added to 55 μL cells/transformation cocktail and vortexed for 2 s. Transformations were incubated at 39° C. for 1 h with 250 rpm shaking. Transformations were resuspended in 750 μL YPD with 1 M sorbitol and recovered at 30° C. overnight with 250 rpm shaking. The next day, transformations were centrifuged at 500×g for 5 min, supernatants were discarded, and cell pellets were resuspended in 750 YPD. Resuspended transformations were plated on YPD with appropriate selection or YNBD (6.71 g/L yeast nitrogen base+nitrogen, 0.5% casamino acids, 2% dextrose) agar plates and grown at 30° C. for 2 days. Individual colonies were patched onto YPD plates with appropriate selection or YNBD plates and grown at 30° C. overnight. Patches were used to inoculate 0.5 mL YPD with appropriate selection or YNBD precultures in 96 w blocks and grown at 30° C. for 24-48 h with 1000 rpm shaking. For assays, 0.5 mL YPD with appropriate selection or YNBD cultures containing substrate were inoculated with 2 μL from precultures and grown at 30° C. for 2-4 days with 1000 rpm shaking with 2% glucose added every 24 h. Assay cultures were quenched by addition of 0.5 mL ethanol with 0.2% formic acid and 0.5 mg/mL pentyl-benzoic acid. Precipitates were pelleted by centrifuging at 4600×g for 10 min and then 200 μL was transferred to fresh plates, sealed, and analyzed via HPLC.
(§2) All samples were quenched with equal volume of EtOH containing 0.2 mg/mL internal standard (3,5-Diisopropyl-2-hydroxybenzoic acid CAS #2215-21-6) centrifuged, and clarified solutions were analyzed by HPLC-MS
(§3) • Column: 2.1×50 mm COSMOCORE PBr (Nacalai USA, Inc.) • Mobile Phase: A; 0.1% formic acid in water, B; 0.1% formic acid in acetonitrile • Flow: 0.45 mL/min • Temp: % 50 Celsius • Gradient: 20%B at 0 min, 70%B at 2.3 min, 89% B at 4.2 min, 20% B at 4.3 min, 20%B at 6 min

Experiment [2] has as its system olivetolic acid. As to the kind of experiment: Fusions of different GPSs with MPT4, in vivo assay (Example 7). As to conditions: 1 mM olivetolic acid, 72 h quench. As to the method:
As described below, plasmids pCL-SE-0337, 0406, 0452 and 0453 were transformed into strain sCL-SE-0128. Multiple colonies per transformation were precultured for 24 h in YNB containing glycerol (2%), casamino acids (0.5%), and MES (100 mM pH 6.5). Pre-culture was used to inoculate assay medium comprised of YNB containing glycerol (2%), casamino acids (0.5%), MES (100 mM pH 6.5), and olivetolic acid (1 mM). Cultures were quenched after 72 h total growth and assayed for CBGA and F-CBGA. Averages and standard deviations were calculated from replicates.
However, sCL-SE-0128 expresses HMGR and GPS1.1 to increase intracellular GPP levels for prenylation of OA to CBGA. The plasmids that were transformed contain a gene expressing a fusion between two different GPSs and a prenyl-transferase. The same linker is used for all constructs. […] Additionally, as illustrated by GPS2 (pCL-SE-0453), certain GPS-MPT combinations result in very high CBGA/ FCBGA ratios.
as §1, §2, §3

Experiment [3] relates to olivetolic acid. As to the kind of experiment: MPT fusions with GPS1.1 vs unfused MPTs, OA feed (Example 8, Table 9). As to conditions: 2 mM olivetolic acid, 48 h quench. The method in brief:
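Yeast strain sCL-SE-0128 carrying MPT or GPS1.1–MPT fusion plasmids, precultured 48 h in YNB/2% glucose/0.5% casamino acids/100 mM MES pH 6.5. Assay medium was the same plus 2 mM olivetolic acid, 30 °C. Cultures were ethanol-quenched at 48 h total growth, and CBGA and FCBGA were measured by HPLC-MS with internal standard; values are replicate means ± SD.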

For a further experiment, the system named is hexanoic acid. As to the kind of experiment: GPS-PKC-MPT fusions, hexanoic acid feed in vivo assay (Example 13). As to conditions: hexanoic acid 2.5 mM plus 5 mM after 24 h, 48 h quench; strain SB-00311 + pCL-SE-0274; average of 44 or 34 transformants. As for the experimental part:
Strain SB-00311 (HCS2, PKS1.1 and PKC1.1) was co-transformed with 1) a construct (pCL-SE-0274) for expression of HMGR and GPS1.1 and 2) a construct (pCL-SE-0406) for expression of a fusion protein that contains, from N- to C-terminus, GPS1.1 and MPT4 linked using the F11 linker sequence or a construct (pCL-SE-0474) for expression of a fusion protein that contains, from N- to C-terminus, GPS1.1, PKC1.1 and MPT4, each linked using the F11 linker sequence.
Transformants were assessed for CBGA production from hexanoic acid. Assay cultures consisted of YNBD+CAA media with 2.5 mM hexanoic acid. After 24 h, an additional 5 mM hexanoic acid was added to each assay culture. Cultures were quenched after 48 h total growth.
Overnight YPD (10 g/L yeast extract, 20 g/L peptone, 2% dextrose) cultures were inoculated from glycerol stocks of the appropriate strain and grown at 30° C. with 250 rpm shaking. Once cultures had reached an OD600 of 4-6, cultures were centrifuged at 500×g for 5 min, supernatants were discarded, and cell pellets were resuspended in equal volume of water. Resuspended cells were centrifuged at 500×g for 5 min, supernatants were discarded, and cells were resuspended in a volume (75 μL×OD×Vculture) of transformation cocktail (45% PEG-400, 0.1 M LiAc, 0.1 M DTT, and 25 ug/100 μL SS Salmon Sperm DNA). For each transformation, >1 μg of plasmid DNA was added to 55 μL cells/transformation cocktail and vortexed for 2 s. Transformations were incubated at 39° C. for 1 h with 250 rpm shaking. Transformations were resuspended in 750 μL YPD with 1 M sorbitol and recovered at 30° C. overnight with 250 rpm shaking. […] Precipitates were pelleted by centrifuging at 4600×g for 10 min and then 200 μL was transferred to fresh plates, sealed, and analyzed via HPLC.
All samples were quenched with equal volume of EtOH containing 0.2 mg/mL internal standard (3,5-Diisopropyl-2-hydroxybenzoic acid CAS #2215-21-6) centrifuged, and clarified solutions were analyzed by HPLC-MS […]

[4] abbreviates: 2% glycerol, strain sCL-SE-0128.

B1: GPS1.1-F11-MPT4: fusion of GPS1.1 and MPT4 via F11 linker, SEQ ID NO: 16 (protein)
chain: MSKAKFESVFPRISEELVQLLRDEGLPQDAVQWFSDSLQYNCVGGKLNRGLSVVDTYQLLTGKKELDDEEYYRLALLGWLIELLQAFWLVSDDIMDESKTRRGQPCWYLKPKVGMIAIWDAFMLESGIYILLKKHFRQEKYYIDLVELFHDISFKTELGQLVDLLTAPEDEVDLNRFSLDKHSFIVRYKTAYYSFYLPVVLAMYVAGITNPKDLQQAMDVLIPLGEYFQVQDDYLDNFGDPEFIGKIGTDIQDNKCSWLVNKALQKATPEQRQILEDNYGVKDKSKELVIKKLYDDMKIEQDYLDYEEEVVGDIKKKIEQVDESRGFKKEVLNAFLAKIYKRQKGGAEAAAKEAAAKAGGSGGGSGGGGSGGSGGGGSGGGGSMSDNSIATKILNFGHTCWKLQRPYVVKGMISIACGLFGRELFNNRHLFSWGLMWKAFFALVPILSFNFFAAIMNQIYDVDIDRINKPDLPLVSGEMSIETAWILSIIVALTGLIVTIKLKSAPLFVFIYIFGIFAGFAYSVPPIRWKQYPFTNFLITISSHVGLAFTSYSATTSALGLPFVWRPAFSFIIAFMTVMGMTIAFAKDISDIEGDAKYGVSTVATKLGARNMTFVVSGVLLLNYLVSISIGIIWPQVFKSNIMILSHAILAFCLIFQTRELALANYASAPSRQFFEFIWLLYYAEYFVYVFI
modifications: GPS1.1-F11-MPT4, geranyl diphosphate synthase, membrane-bound prenyltransferase fusion protein
With B1, the CBGA with olivetolic acid [1] (setting [4]) turned out to be 393 ± 41 µM; in the experiment with olivetolic acid [2] (setting [4]) it was 376 ± 41 µM; in the experiment on olivetolic acid [3] (2% glucose, strain sCL-SE-0128) it was 200 ± 3 µM; in the experiment with hexanoic acid, 55.9 ± 26.4 µM. Further, the FCBGA stood at 60 ± 5 µM with olivetolic acid [1] (setting [4]); 51 ± 5 µM in the experiment with olivetolic acid [2] (setting [4]); 24 ± 1 µM with olivetolic acid [3] (2% glucose, strain sCL-SE-0128). Besides, the CBGA/FCBGA was 6.6 in the experiment on olivetolic acid [1] (product ratio), 7.4 in the experiment with olivetolic acid [2] (product ratio) and 8.2 in the experiment on olivetolic acid [3] (product ratio).
